Changes are numbered by the printed parent chain.

The labels stand for the following.
B1: 2-in-1 DARPin 24 (SEQ ID NO: 93) (designed binder)
chain: DLGKKLLQAARAGQLDEVRELLKAGADVNAKDSQGRTPLHLAAFAGHLEIVEVLLKAGADVNAKDHAGWTPLHLAAYAGHLEIVEVLVKAGADVNAKDTEGKTPLHIAAWFGHLEIVEVLLKAGADVNAKDKSGKTPLHLAARAGHLEIVEVLLKAGADVNAKDNSGQTPLHEAAWAGHLEIVEVLLKAGADVNAKNSRGWTPLHTAAQTGHLEIFEVLLKAGADVNAKNDKRVTPLHLAAALGHLEIVEVLLKAGADVNARDSWGTTPADLAAKYGHQDIAEVLQKAA
B2: 2-in-1 DARPin 25 (SEQ ID NO: 94) (designed binder)
chain: B1 chain with E173L
B3: 2-in-1 DARPin 23 (SEQ ID NO: 92) (designed binder)
chain: DLGKKLLQAARAGQLDEVRELLKAGADVNAKDSQGRTPLHLAAFAGHLEIVEVLLKAGADVNAKDHAGWTPLHLAAYAGHLEIVEVLVKAGADVNAKDTEGKTPLHIAAWFGHLEIVEVLLKAGADVNAKDKSGQTPLHLAAWAGHLEIVEVLLKAGADVNAKNSRGWTPLHTAAQTGHLEIFEVLLKAGADVNAKNDKRVTPLHLAAALGHLEIVEVLLKAGADVNARDSWGTTPADLAAKYGHQDIAEVLQKAA
B4: Parent DARPin no 4 (SEQ ID NO: 88) (designed binder)
chain: DLGKKLLQAARAGQLDEVRELLKAGADVNAKDSQGRTPLHLAAFAGHLEIVEVLLKAGADVNAKDHAGWTPLHLAAYAGHLEIVEVLVKAGADVNAKDTEGKTPLHIAAWFGHLEIVEVLLKAGADVNAQDKSGKTPADLTARAGHQDIAEVLQKAA

The first assay has as its target TargetA. As to the kind of experiment: ELISA on TargetA, DARPin titrated. For orientation: In an ELISA, binding on a coated surface is turned into a signal by an enzyme label.
For orientation: EC50 (read off the curve) means the concentration that produces a half-maximal response. Take B1: the EC50 (read off the curve) came to 0.8 nM.
Still for that read-out and setting: with B2 the figure was 0.7 nM; with B3, 1 nM.

The target in another assay is TargetA. As to the kind of experiment: SPR, bio-TargetA coated on NAD chip, DARPin 333.33-4.11 nM.
A word on the Kd: it is the concentration at which binding is half-saturated. In turn, B1 came in with a Kd of 0.119 nM.
Regarding B2, the Kd turned out to be 0.018 nM.
On the same count and under the same terms, with B4 the figure was 0.16 nM.
Molecule B3 registered a Kd of 0.024 nM.

The record behind these values is patent US20250042957A1.
